Broadly, the Kd is a measure of binding affinity in units of concentration. The low end stands for a tighter complex, the high end for a looser complex.

In data set [1] the target is T1, N-C3 (Homo sapiens, UniProt Q13018).
T1 construct: the N-terminus to and including CTLD3 (N-C3); no tag is printed; made in house; host or cells: HEK 293-EBNA1
The data set can be described thus: SPR kinetics of patient sera autoantibodies over immobilized N-C3. Conditions: patient autoantibodies in sera binding to immobilized N-C3. How it is done:
Quantitation of serum antibody concentrations was performed on the Proteon XPR-36 (Bio-Rad) SPR instrument where the initial binding rates of purified human anti-PLA2R binding to N-C3 were used as standard curve to determine the concentration of anti-PLA2R in the unknown serum samples.
(In general: Surface plasmon resonance follows binding to a sensor surface in real time, without labels.)

Data set [2] concerns human anti-PLA2R autoantibodies. Kind of data set: Western blotting of PLA2R fragments with human anti-PLA2R autoantibodies. Type of data set: binding. (A western blot detects proteins with antibodies after separation by electrophoresis.)
Data set [3] in a line: Hydrodynamic radius from QELS. The class given is physicochemical. Conditions: pH 7.4.
Data set [4] is described as follows: Sedimentation velocity (analytical ultracentrifugation). The class given is physicochemical. To be noted: for Frictional ratio (f/f0): from Mass derived from MALLS. How it is done: The experiments were performed using double sector cells and a rotor speed of 74,500 g for N-C8 and 116,500 g for N-C3, taking 150 scans at 1.5 minutes intervals at a wavelength of 280 nm and at a temperature of 20° C. The sedimenting boundaries were analyzed using the program Sedfit v8.7.

The test system of data set [5] is anti-PLA2R autoantibodies in patient sera. Kind of data set: N-C3 inhibition ELISA (autoantibody binding to N-C8). More on the design: species or system human. To be noted: N-C3 9.0 μg ml-1; 43 PLA2R-positive sera. How it is done: The ELISA method was a variation on the standard assay previously described. Briefly, PLA2R (N-C8) at 125 ng ml-1 was coated onto ELISA plates overnight and plates blocked with Superblock (Thermo Scientific). 50 μl of 1:100 dilution of patient serum plus 50 μl of either buffer or NC-3 fragment to give a final concentration in the well of 9.0 μg ml-1, 0.9 μg ml-1, 0.09 μg ml-1 and 0.009 μg ml-1 were preincubated for 2 hours at room temperature before adding to the ELISA plate for a further 2 hours with shaking. Following extensive washing, anti-human IgG-HRP at 1:25,000 dilution in assay buffer was added to all wells for 2 hour incubation. Following washing, the plate was developed by adding substrate and the reaction terminated at 5 minutes by addition of 1 M H2SO4. Plates were read at 450 nm and inhibition curves constructed. The concentration of 9.0 μg ml-1 was used to compare the inhibition profile of 43 different sera previous reported as anti-PLA2R positive.
(In an ELISA, binding on a coated surface is turned into a signal by an enzyme label.)

Data set [6] is described as follows: Dual polarisation interferometry, pH dependent conformational change. The class given is physicochemical. Conditions: pH range 5.0 to 7.2 screened; thickness of protein layer. How it is done:
Dual polarisation interferometry was used to provide quantitative information on the thickness, the refractive index and density of the immobilized PLA2R layer with the capability to measure conformational change in real time. The DPI experiments were performed on a Farfield AnaLight instrument. […] N-C8 and N-C3 were regenerated between the different pHs with running buffer pH 7.2. Analysis of the raw data and determination of density, thickness and mass per unit area was achieved using the AnaLight® Bio200 analysis software (Farfield Scientific).

For data set [7], the system named is purified anti-PLA2R antibody. Conditions: pH 6.2 (tight) vs pH 7.2 (extended).

T1 sequence (Q13018 21-643 limits assumed): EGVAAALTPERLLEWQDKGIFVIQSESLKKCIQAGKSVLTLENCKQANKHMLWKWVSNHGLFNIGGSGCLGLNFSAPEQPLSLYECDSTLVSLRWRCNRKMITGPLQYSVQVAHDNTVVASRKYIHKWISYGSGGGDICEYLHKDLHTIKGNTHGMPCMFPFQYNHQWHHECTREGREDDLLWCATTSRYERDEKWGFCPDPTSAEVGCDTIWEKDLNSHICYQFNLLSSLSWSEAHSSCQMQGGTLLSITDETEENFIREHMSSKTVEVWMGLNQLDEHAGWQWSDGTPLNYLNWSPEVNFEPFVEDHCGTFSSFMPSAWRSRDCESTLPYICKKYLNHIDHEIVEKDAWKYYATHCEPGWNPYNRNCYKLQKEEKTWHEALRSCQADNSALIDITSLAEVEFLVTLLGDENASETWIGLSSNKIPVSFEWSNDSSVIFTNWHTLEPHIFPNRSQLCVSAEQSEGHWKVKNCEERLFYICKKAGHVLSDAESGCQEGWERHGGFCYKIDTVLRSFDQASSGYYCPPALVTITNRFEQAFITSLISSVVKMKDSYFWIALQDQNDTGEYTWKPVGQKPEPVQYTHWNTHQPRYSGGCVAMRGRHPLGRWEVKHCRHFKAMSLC

With “YYATHCEPGWNPYNR [compound 5, Linker between CTLD1 and CTLD2]”, the Kd in data set [1] amounted to 0.032 nM.

Substance “EDDLLWCATTSR [compound 3, Fibronectin type II domain peptide]” registered a Kd in data set [1] of 0.043 nM.

“YLNHIDHEIVEKDAWK [compound 4, Linker between CTLD1 and CTLD2]” registered a dissociation constant (Kd) in data set [1] of 0.085 nM.

“N-C2: recombinant PLA2R fragment, the N-terminus to and including CTLD2”: the “recognition by human anti-PLA2R autoantibodies” value (“recognition” below) in data set [2] was “neither N-C2 nor C3 fragments were recognized”.

Regarding “N-C3: recombinant PLA2R fragment, the N-terminus to and including CTLD3”, the Hydrodynamic radius in data set [3] is 3.81 ± 0.23 nm. Moreover, the “Sedimentation coefficient (S20, w)” value was found to be 5.35 ± 0.10 in data set [4] (pH 6.2) and 5.29 ± 0.09 in data set [4] (pH 7.4). Besides, the sedimentation coefficient in data set [4] (pH 6.2) and in data set [4] (pH 7.2) was 5.3 s throughout. In addition, the entries for the “Frictional ratio (f/f0)” value in data set [4] (pH 6.2) and in data set [4] (pH 7.4) were 1.39 and 1.38, respectively. In data set [5], the “patient sera in which binding of autoantibodies to N-C8 was effectively competed” value is listed as “approximately 90%”. Also, the “recognition” value in data set [2] is on record as “recognized”.

As for “N-C8: recombinant full length extracellular PLA2R”, in data set [6], the “pH region where the transition in conformation occurred” value is around 6.2 pH. For the same substance, the Hydrodynamic radius in data set [3] is listed as 6.25 ± 0.19 nm. Moreover, the “difference in affinity of anti-PLA2R binding between conformations” value in data set [7] is reported as “no difference in affinity”. In addition, in data set [4] (pH 6.2), the “Sedimentation coefficient (S20, w)” value was determined as 9.23 ± 0.25; the sedimentation coefficient is reported as 9.2 s; the “Frictional ratio (f/f0)” value is on record as 1.32. In data set [4] (pH 7.2), the sedimentation coefficient is recorded as 8.1 s. In addition, in data set [4] (pH 7.4), the “Sedimentation coefficient (S20, w)” value turned out to be 8.08 ± 0.21 and the “Frictional ratio (f/f0)” value was 1.51. In data set [2], the “recognition” value is “recognized”.

The values are drawn from patent US20170137490A1, “PEPTIDES, AND METHODS AND APPARATUS UTILISING SAME” (The University of Manchester, priority 2014, published 2017).
